Target: DP10.7 TCR (Vγ4Vδ1), soluble recombinant γδ TCR (human)
Assay: SPR

## soluble, recombinant human CD1d (heterodimer with β2-microglobulin) (from UniProt P15813 20-301; P61769 21-119) (complex)
  KD without sulfatide (CD1d loaded with 24:1 βGalCer): > 100 µM
